B1: Mothers against decapentaplegic homolog 4 (Homo sapiens), Q13485 (parent)
chain: MDNMSITNTPTSNDACLSIVHSLMCHRQGGESETFAKRAIESLVKKLKEKKDELDSLITAITTNGAHPSKCVTIQRTLDGRLQVAGRKGFPHVIYARLWRWPDLHKNELKHVKYCQYAFDLKCDSVCVNPYHYERVVSPGIDLSGLTLQSNAPSSMMVKDEYVHDFEGQPSLSTEGHSIQTIQHPPSNRASTETYSTPALLAPSESNATSTANFPNIPVASTSQPASILGGSHSEGLLQIASGPQPGQQQNGFTGQPATYHHNSTTTWTGSRTAPYTPNLPHHQNGHLQHHPPMPPHPGHYWPVHNELAFQPPISNHPAPEYWCSIAYFEMDVQVGETFKVPSSCPIVTVDGYVDPSGGDRFCLGQLSNVHRTEAIERARLHIGKGVQLECKGEGDVWVRCLSDHAVFVQSYYLDREAGRAPGDAVHKIYPSAYIKVFDLRQCHRQMQQQAATAQAAAAAQAAAVAGNIPGPGSVGGIAPAISLSAAAGIGVDDLRRLCILRMSFVKGWGPDYPRQSIKETPCWIEIHLHRALQLLDEVLHTMPIADPQPLD

Variants of: B1
Conditions: with smad3_human SMAD3, P84022

effect of a mutation on the interaction	Variant
disrupting interaction strength	R361H

Variants of: B1
Conditions: with agap2_human AGAP2, Q99490

effect of a mutation on the interaction	Variant
with no effect	R361H

Variants of: B1
Conditions: with ajuba_human AJUBA

effect of a mutation on the interaction	Variant
with no effect	R361H

Variants of: B1
Conditions: with akt1_human AKT1, P31749

effect of a mutation on the interaction	Variant
with no effect	R361H

Variants of: B1
Conditions: with akts1_human AKT1S1, Q96B36

effect of a mutation on the interaction	Variant
with no effect	R361H

Variants of: B1
Conditions: with akt3_human AKT3, Q9Y243

effect of a mutation on the interaction	Variant
with no effect	R361H

Variants of: B1
Conditions: with alk_human ALK

effect of a mutation on the interaction	Variant
with no effect	R361H

Variants of: B1
Conditions: with aph1a_human APH1A

effect of a mutation on the interaction	Variant
with no effect	R361H

Variants of: B1
Conditions: with arnt_human ARNT

effect of a mutation on the interaction	Variant
with no effect	R361H

Variants of: B1
Conditions: with arc1a_human ARPC1A

effect of a mutation on the interaction	Variant
with no effect	R361H

Variants of: B1
Conditions: with asxl1_human ASXL1, Q8IXJ9

effect of a mutation on the interaction	Variant
with no effect	R361H

Variants of: B1
Conditions: with bakor_human ATG14, Q6ZNE5
Chain of bakor_human ATG14, Q6ZNE5 (Q6ZNE5 whole entry): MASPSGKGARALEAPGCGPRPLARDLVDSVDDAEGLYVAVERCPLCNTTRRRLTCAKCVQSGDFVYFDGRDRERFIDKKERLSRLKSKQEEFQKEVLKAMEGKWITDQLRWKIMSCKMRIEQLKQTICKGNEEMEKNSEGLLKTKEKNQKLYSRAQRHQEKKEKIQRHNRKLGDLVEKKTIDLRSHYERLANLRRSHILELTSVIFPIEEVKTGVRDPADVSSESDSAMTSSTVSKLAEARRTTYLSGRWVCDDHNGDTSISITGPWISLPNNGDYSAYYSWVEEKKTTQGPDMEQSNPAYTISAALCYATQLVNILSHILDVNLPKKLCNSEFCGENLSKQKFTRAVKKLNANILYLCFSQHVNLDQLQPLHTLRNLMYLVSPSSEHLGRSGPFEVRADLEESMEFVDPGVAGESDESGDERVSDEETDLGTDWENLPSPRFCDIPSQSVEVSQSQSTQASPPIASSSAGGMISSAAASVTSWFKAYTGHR

effect of a mutation on the interaction	Variant
with no effect	R361H

Variants of: B1
Conditions: with atpb_human ATP5F1B

effect of a mutation on the interaction	Variant
with no effect	R361H

Variants of: B1
Conditions: with aurkb_human AURKB

effect of a mutation on the interaction	Variant
with no effect	R361H

Variants of: B1
Conditions: with ufo_human AXL

effect of a mutation on the interaction	Variant
with no effect	R361H

Variants of: B1
Conditions: with za2g_human AZGP1, P25311

effect of a mutation on the interaction	Variant
with no effect	R361H

Variants of: B1
Conditions: with b2mg_human B2M

effect of a mutation on the interaction	Variant
with no effect	R361H

Variants of: B1
Conditions: with bap1_human BAP1, Q92560

effect of a mutation on the interaction	Variant
with no effect	R361H

Variants of: B1
Conditions: with becn1_human BECN1, Q14457

effect of a mutation on the interaction	Variant
with no effect	R361H

Variants of: B1
Conditions: with birc2_human BIRC2, Q13490

effect of a mutation on the interaction	Variant
with no effect	R361H

Variants of: B1
Conditions: with braf_human BRAF

effect of a mutation on the interaction	Variant
with no effect	R361H

Variants of: B1
Conditions: with baba2_human BABAM2, Q9NXR7

effect of a mutation on the interaction	Variant
with no effect	R361H

Variants of: B1
Conditions: with cbl_human CBL

effect of a mutation on the interaction	Variant
with no effect	R361H

Variants of: B1
Conditions: with cblb_human CBLB

effect of a mutation on the interaction	Variant
with no effect	R361H

Variants of: B1
Conditions: with ccnd2_human CCND2, P30279

effect of a mutation on the interaction	Variant
with no effect	R361H

Variants of: B1
Conditions: with ccnd3_human CCND3, P30281

effect of a mutation on the interaction	Variant
with no effect	R361H

Variants of: B1
Conditions: with cd44_human CD44, P16070

effect of a mutation on the interaction	Variant
with no effect	R361H

Variants of: B1
Conditions: with cd79b_human CD79B

effect of a mutation on the interaction	Variant
with no effect	R361H

Variants of: B1
Conditions: with cdn2b_human CDKN2B

effect of a mutation on the interaction	Variant
with no effect	R361H

Variants of: B1
Conditions: with cdn2c_human CDKN2C

effect of a mutation on the interaction	Variant
with no effect	R361H

Variants of: B1
Conditions: with cebpa_human CEBPA

effect of a mutation on the interaction	Variant
with no effect	R361H

Variants of: B1
Conditions: with chd1l_human CHD1L

effect of a mutation on the interaction	Variant
with no effect	R361H

Variants of: B1
Conditions: with ch3l1_human CHI3L1, P36222

effect of a mutation on the interaction	Variant
with no effect	R361H

Variants of: B1
Conditions: with ctna1_human CTNNA1, P35221
Chain of ctna1_human CTNNA1, P35221 (P35221 whole entry): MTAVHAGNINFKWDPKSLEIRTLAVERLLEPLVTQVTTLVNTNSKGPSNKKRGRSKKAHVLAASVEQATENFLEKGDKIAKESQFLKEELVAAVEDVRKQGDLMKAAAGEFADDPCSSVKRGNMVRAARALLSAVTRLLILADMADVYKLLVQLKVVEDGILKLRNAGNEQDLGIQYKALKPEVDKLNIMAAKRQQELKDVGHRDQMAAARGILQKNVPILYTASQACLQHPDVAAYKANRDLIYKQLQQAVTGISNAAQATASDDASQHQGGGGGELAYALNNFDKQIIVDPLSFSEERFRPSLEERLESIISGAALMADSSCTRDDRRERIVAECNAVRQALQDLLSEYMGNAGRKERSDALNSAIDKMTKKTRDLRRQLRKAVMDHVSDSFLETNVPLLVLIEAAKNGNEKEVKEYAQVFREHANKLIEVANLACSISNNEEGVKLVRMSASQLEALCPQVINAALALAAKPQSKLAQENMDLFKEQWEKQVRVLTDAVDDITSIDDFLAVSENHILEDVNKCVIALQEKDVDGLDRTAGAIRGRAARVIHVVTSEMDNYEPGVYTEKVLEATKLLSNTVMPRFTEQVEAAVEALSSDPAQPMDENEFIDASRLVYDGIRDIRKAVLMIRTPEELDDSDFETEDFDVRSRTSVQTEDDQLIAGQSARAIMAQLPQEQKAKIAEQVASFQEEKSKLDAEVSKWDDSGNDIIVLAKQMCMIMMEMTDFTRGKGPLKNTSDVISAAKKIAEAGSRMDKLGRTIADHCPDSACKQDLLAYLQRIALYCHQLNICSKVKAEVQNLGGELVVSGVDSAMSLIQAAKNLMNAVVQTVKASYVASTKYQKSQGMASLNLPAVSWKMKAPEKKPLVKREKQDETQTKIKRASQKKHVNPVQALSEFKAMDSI

effect of a mutation on the interaction	Variant
with no effect	R361H

Variants of: B1
Conditions: with ctnb1_human CTNNB1, P35222

effect of a mutation on the interaction	Variant
with no effect	R361H

Variants of: B1
Conditions: with cul3_human CUL3, Q13618

effect of a mutation on the interaction	Variant
with no effect	R361H

Variants of: B1
Conditions: with cul4b_human CUL4B

effect of a mutation on the interaction	Variant
with no effect	R361H

Variants of: B1
Conditions: with dicer_human DICER1, Q9UPY3

effect of a mutation on the interaction	Variant
with no effect	R361H

Variants of: B1
Conditions: with dll3_human DLL3, Q9NYJ7

effect of a mutation on the interaction	Variant
with no effect	R361H

Variants of: B1
Conditions: with duox2_human DUOX2, Q9NRD8

effect of a mutation on the interaction	Variant
with no effect	R361H

Variants of: B1
Conditions: with e2f3_human E2F3, O00716
Chain of e2f3_human E2F3, O00716 (O00716 whole entry): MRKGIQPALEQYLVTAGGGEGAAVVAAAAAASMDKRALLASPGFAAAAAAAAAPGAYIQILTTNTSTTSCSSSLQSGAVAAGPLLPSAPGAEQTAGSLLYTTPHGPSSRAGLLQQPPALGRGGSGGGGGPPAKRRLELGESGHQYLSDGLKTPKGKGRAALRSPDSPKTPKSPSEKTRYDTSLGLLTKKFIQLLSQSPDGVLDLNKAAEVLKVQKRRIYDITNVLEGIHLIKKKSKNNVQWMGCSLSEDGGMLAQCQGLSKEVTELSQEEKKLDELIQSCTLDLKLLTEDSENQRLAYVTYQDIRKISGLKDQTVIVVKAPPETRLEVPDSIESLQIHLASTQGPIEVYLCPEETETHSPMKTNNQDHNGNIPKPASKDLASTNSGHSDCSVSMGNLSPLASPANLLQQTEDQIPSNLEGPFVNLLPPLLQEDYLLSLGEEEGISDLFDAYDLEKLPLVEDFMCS

effect of a mutation on the interaction	Variant
with no effect	R361H

Variants of: B1
Conditions: with e2f4_human E2F4, Q16254

effect of a mutation on the interaction	Variant
with no effect	R361H

Variants of: B1
Conditions: with e2f5_human E2F5, Q15329

effect of a mutation on the interaction	Variant
with no effect	R361H

Variants of: B1
Conditions: with if4e_human EIF4E

effect of a mutation on the interaction	Variant
with no effect	R361H

Variants of: B1
Conditions: with epha2_human EPHA2, P29317

effect of a mutation on the interaction	Variant
with no effect	R361H

Variants of: B1
Conditions: with epha7_human EPHA7, Q15375

effect of a mutation on the interaction	Variant
with no effect	R361H

Variants of: B1
Conditions: with ephb1_human EPHB1, P54762
Chain of ephb1_human EPHB1, P54762 (P54762 whole entry): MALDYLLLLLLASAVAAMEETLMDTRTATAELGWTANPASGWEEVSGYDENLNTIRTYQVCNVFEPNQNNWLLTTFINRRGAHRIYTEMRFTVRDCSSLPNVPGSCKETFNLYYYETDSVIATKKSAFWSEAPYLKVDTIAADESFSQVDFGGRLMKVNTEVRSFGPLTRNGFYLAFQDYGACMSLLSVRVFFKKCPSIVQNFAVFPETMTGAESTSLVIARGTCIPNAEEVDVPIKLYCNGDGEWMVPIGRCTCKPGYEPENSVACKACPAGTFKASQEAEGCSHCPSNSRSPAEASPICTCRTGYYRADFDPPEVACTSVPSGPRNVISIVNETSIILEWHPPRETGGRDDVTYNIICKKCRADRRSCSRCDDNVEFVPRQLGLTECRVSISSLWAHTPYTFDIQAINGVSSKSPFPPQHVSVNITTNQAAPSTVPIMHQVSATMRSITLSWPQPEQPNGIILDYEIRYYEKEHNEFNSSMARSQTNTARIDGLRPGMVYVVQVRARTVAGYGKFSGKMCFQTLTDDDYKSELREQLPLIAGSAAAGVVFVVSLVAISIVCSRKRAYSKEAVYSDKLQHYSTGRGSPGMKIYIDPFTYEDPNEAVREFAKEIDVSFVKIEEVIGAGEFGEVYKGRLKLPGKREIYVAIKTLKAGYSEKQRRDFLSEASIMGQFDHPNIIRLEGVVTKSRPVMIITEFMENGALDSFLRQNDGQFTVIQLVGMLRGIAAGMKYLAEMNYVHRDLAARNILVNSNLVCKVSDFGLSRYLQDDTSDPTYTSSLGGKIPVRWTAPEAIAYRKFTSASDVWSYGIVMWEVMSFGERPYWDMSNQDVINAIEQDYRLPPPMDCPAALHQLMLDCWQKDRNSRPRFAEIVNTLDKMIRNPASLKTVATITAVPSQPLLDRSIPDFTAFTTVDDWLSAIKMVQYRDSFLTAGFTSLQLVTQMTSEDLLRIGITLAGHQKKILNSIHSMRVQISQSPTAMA

effect of a mutation on the interaction	Variant
with no effect	R361H

Variants of: B1
Conditions: with erbb3_human ERBB3, P21860

effect of a mutation on the interaction	Variant
with no effect	R361H

Variants of: B1
Conditions: with erbb4_human ERBB4, Q15303

effect of a mutation on the interaction	Variant
with no effect	R361H

Variants of: B1
Conditions: with esr1_human ESR1, P03372
Chain of esr1_human ESR1, P03372 (P03372 whole entry): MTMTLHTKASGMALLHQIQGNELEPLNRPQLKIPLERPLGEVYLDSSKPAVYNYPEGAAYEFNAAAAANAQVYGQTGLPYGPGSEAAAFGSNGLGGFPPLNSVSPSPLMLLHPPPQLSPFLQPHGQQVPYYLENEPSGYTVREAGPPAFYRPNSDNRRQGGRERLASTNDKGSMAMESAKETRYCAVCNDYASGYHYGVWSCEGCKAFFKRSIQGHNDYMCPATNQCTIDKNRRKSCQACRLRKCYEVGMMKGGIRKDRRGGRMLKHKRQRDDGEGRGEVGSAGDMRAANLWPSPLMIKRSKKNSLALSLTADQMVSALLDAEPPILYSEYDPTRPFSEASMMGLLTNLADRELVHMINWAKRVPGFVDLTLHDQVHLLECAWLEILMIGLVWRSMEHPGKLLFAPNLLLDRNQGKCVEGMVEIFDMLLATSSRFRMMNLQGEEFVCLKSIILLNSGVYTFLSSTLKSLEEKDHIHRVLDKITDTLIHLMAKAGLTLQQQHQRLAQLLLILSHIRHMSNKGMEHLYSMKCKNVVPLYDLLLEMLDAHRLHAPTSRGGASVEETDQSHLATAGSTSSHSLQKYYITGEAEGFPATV

effect of a mutation on the interaction	Variant
with no effect	R361H

Variants of: B1
Conditions: with etv1_human ETV1, P50549

effect of a mutation on the interaction	Variant
with no effect	R361H

Variants of: B1
Conditions: with fadd_human FADD

effect of a mutation on the interaction	Variant
with no effect	R361H

Variants of: B1
Conditions: with facd2_human FANCD2, Q9BXW9

effect of a mutation on the interaction	Variant
with no effect	R361H

Variants of: B1
Conditions: with fgf19_human FGF19, O95750
Chain of fgf19_human FGF19, O95750 (O95750 whole entry): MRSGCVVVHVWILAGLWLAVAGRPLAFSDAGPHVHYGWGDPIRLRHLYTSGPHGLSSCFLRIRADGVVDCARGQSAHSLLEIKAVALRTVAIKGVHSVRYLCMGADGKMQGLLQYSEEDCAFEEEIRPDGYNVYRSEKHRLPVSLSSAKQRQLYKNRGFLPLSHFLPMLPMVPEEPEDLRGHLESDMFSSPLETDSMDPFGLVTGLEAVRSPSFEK

effect of a mutation on the interaction	Variant
with no effect	R361H

Variants of: B1
Conditions: with fgfr3_human FGFR3, P22607

effect of a mutation on the interaction	Variant
with no effect	R361H

Variants of: B1
Conditions: with fgfr4_human FGFR4, P22455

effect of a mutation on the interaction	Variant
with no effect	R361H

Variants of: B1
Conditions: with foxo1_human FOXO1, Q12778

effect of a mutation on the interaction	Variant
with no effect	R361H

Variants of: B1
Conditions: with gbra6_human GABRA6, Q16445

effect of a mutation on the interaction	Variant
with no effect	R361H

Variants of: B1
Conditions: with gata2_human GATA2, P23769

effect of a mutation on the interaction	Variant
with no effect	R361H

Variants of: B1
Conditions: with gata3_human GATA3, P23771

effect of a mutation on the interaction	Variant
with no effect	R361H

Variants of: B1
Conditions: with gna11_human GNA11, P29992

effect of a mutation on the interaction	Variant
with no effect	R361H

Variants of: B1
Conditions: with gnaq_human GNAQ

effect of a mutation on the interaction	Variant
with no effect	R361H

Variants of: B1
Conditions: with grm1_human GRM1, Q13255

effect of a mutation on the interaction	Variant
with no effect	R361H

Variants of: B1
Conditions: with grm3_human GRM3, Q14832

effect of a mutation on the interaction	Variant
with no effect	R361H

Variants of: B1
Conditions: with gsk3a_human GSK3A

effect of a mutation on the interaction	Variant
with no effect	R361H

Variants of: B1
Conditions: with hdac1_human HDAC1, Q13547

effect of a mutation on the interaction	Variant
with no effect	R361H

Variants of: B1
Conditions: with hdac3_human HDAC3, O15379

effect of a mutation on the interaction	Variant
with no effect	R361H

Variants of: B1
Conditions: with hgf_human HGF

effect of a mutation on the interaction	Variant
with no effect	R361H

Variants of: B1
Conditions: with h31_human H3C1, P68431

effect of a mutation on the interaction	Variant
with no effect	R361H

Variants of: B1
Conditions: with hlab_human HLA-B

effect of a mutation on the interaction	Variant
with no effect	R361H

Variants of: B1
Conditions: with hnf1a_human HNF1A

effect of a mutation on the interaction	Variant
with no effect	R361H

Variants of: B1
Conditions: with rash_human HRAS

effect of a mutation on the interaction	Variant
with no effect	R361H

Variants of: B1
Conditions: with hs90a_human HSP90AA1, P07900

effect of a mutation on the interaction	Variant
with no effect	R361H

Variants of: B1
Conditions: with hs90b_human HSP90AB1, P08238

effect of a mutation on the interaction	Variant
with no effect	R361H

Variants of: B1
Conditions: with il7ra_human IL7R

effect of a mutation on the interaction	Variant
with no effect	R361H

Variants of: B1
Conditions: with irf6_human IRF6, O14896

effect of a mutation on the interaction	Variant
with no effect	R361H

Variants of: B1
Conditions: with irs1_human IRS1, P35568
Chain of irs1_human IRS1, P35568 (P35568 whole entry): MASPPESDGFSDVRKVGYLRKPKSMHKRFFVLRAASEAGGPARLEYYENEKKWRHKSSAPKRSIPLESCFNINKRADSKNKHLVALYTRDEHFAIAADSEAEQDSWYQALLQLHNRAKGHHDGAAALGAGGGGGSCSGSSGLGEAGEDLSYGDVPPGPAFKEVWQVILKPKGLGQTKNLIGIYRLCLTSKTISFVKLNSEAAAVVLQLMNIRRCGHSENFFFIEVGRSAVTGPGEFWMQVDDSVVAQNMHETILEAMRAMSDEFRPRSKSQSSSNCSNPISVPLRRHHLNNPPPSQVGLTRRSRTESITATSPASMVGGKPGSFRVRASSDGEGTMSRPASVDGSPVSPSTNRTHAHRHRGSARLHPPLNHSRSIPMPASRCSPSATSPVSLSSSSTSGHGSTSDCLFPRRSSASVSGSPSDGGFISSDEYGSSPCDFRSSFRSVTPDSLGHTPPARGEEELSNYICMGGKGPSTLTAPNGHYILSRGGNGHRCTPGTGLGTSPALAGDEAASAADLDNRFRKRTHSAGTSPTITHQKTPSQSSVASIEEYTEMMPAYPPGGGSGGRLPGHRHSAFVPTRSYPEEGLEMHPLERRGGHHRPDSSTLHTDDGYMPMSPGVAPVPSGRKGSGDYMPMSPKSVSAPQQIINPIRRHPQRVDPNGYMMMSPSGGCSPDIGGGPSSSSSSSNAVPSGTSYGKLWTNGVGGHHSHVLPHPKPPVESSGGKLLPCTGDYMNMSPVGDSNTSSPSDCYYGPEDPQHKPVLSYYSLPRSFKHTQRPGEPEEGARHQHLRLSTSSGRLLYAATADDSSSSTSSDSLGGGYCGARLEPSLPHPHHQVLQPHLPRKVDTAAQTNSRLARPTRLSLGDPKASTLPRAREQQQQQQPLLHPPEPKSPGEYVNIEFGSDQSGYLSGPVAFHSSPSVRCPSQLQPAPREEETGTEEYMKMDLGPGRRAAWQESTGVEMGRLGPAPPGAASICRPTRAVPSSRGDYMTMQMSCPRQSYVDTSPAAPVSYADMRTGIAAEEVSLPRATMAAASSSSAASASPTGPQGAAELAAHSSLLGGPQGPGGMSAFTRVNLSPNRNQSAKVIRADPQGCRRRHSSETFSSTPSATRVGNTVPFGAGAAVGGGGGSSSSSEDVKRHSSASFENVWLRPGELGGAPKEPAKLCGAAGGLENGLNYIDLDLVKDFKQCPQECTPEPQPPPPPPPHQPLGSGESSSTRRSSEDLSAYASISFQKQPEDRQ

effect of a mutation on the interaction	Variant
with no effect	R361H

Variants of: B1
Conditions: with jak1_human JAK1, P23458

effect of a mutation on the interaction	Variant
with no effect	R361H

Variants of: B1
Conditions: with kdm5c_human KDM5C

effect of a mutation on the interaction	Variant
with no effect	R361H

Variants of: B1
Conditions: with vgfr2_human KDR

effect of a mutation on the interaction	Variant
with no effect	R361H

Variants of: B1
Conditions: with keap1_human KEAP1, Q14145

effect of a mutation on the interaction	Variant
with no effect	R361H

Variants of: B1
Conditions: with klf4_human KLF4, O43474

effect of a mutation on the interaction	Variant
with no effect	R361H
